B1: glycine–arginine dipeptide protein repeat, 3 repeats (GR3) (peptide)
peptide: GRGRGR
notes: source: synthetic peptide (Scenic Biotech)
B2: glycine–alanine dipeptide protein repeat, 6 repeats (GA6) (peptide)
peptide: GAGAGAGAGAGA
notes: as for B1
B3: proline–arginine dipeptide protein repeat, 3 repeats (PR3) (peptide)
peptide: PRPRPR
notes: as for B1
B4: glycine–alanine dipeptide protein repeat, 3 repeats (GA3) (peptide)
peptide: GAGAGA
notes: as for B1
B5: proline–arginine dipeptide protein repeat, 6 repeats (PR6) (peptide)
peptide: PRPRPRPRPRPR
notes: as for B1
B6: glycine–arginine dipeptide protein repeat, 6 repeats (GR6) (peptide)
peptide: GRGRGRGRGRGR
notes: as for B1
B7: proline–arginine dipeptide protein repeat, 12 repeats (PR12) (peptide)
peptide: PRPRPRPRPRPRPRPRPRPRPRPR
notes: as for B1
B8: glycine–alanine dipeptide protein repeat, 12 repeats (GA12) (peptide)
peptide: GAGAGAGAGAGAGAGAGAGAGAGA
notes: as for B1
B9: glycine–arginine dipeptide protein repeat, 12 repeats (GR12) (peptide)
peptide: GRGRGRGRGRGRGRGRGRGRGRGR
notes: as for B1

Target: the molecule itself
Test: far-Western, overlay or dot blot; synthetic DPRs gently stirred in 1x PBS for 6 days, aliquots at days 1, 2, 4 and 6; 1 ul of 1 mg/ml dotted on nitrocellulose; oligomers read out with oligomer-specific antibody A11-19 (1:8000), fibrillar aggregates with OC (1:10,000)

Protein | binding result
B1 | binds
B2 | binds
B3 | binds
B4 | binds
B5 | binds
B6 | binds

Target: the molecule itself
Test: far-Western, overlay or dot blot; monomeric 12-repeat DPRs seeded with brain-derived DPRs at 1:70 M ratio (seed to monomer), orbital shaker, 37 °C, 72 h; oligomerization confirmed by dot blot

Protein | binding result
B7 | binds
B8 | binds
B9 | binds

Reference: paper PMC10844744, “C9orf72-associated dipeptide protein repeats form A11-positive oligomers in amyotrophic lateral sclerosis and frontotemporal dementia” (The Journal of Biological Chemistry, 2024)
